# US20240132563A1
# Columns and labels:
# Assay in all cases: cell-based or functional assay
# [1] = target: IL-18 polypeptide of SEQ ID NO: 38 (E06K) (human) (UniProt Q14116)
# [2] = target: IL-18 polypeptide of SEQ ID NO: 36 (K53A) (human) (UniProt Q14116)
# [3] = target: IL-18 polypeptide C154 (V11I, E31A, D37A, C38A, K53A, C76A, C127A) (human) (UniProt Q14116)
# [4] = target: IL-18 polypeptide C143 (V11I, C38A, K53A, C76A, C127A) (human) (UniProt Q14116)
# [5] = target: IL-18 polypeptide of SEQ ID NO: 4 (E6K, C38A, K53A, C68A, M86C) (human) (UniProt Q14116)
# [6] = target: IL-18 polypeptide of SEQ ID NO: 62 (E6K, C38A, K53A, C127A) (human) (UniProt Q14116)
# [7] = target: IL-18 polypeptide of SEQ ID NO: 6 (E6K, V11I, C38A, K53A, T63A, C68A, C76A, D98C, C127A) (human) (UniProt Q14116)
# [8] = target: IL-18 polypeptide C165 (V11I, C38A, S55R, C76A, C127A) (human) (UniProt Q14116)
# [9] = target: IL-18 polypeptide C166 (V11I, C38A, S55T, C76A, C127A) (human) (UniProt Q14116)
# [10] = target: IL-18 polypeptide of SEQ ID NO: 54 (E06K, K53A, C38S, C68S, C76S, C127S, K70C) (human) (UniProt Q14116)
# [11] = target: IL-18 polypeptide of SEQ ID NO: 30 (E6K, V11I, C38A, K53A, T63A, C76A, C127A) (human) (UniProt Q14116)
# [12] = target: IL-18 polypeptide C159 (V11I, C38A, K53A, C76A, H109A, C127A) (human) (UniProt Q14116)
# [13] = target: IL-18 polypeptide C151 (V11I, D35A, C38A, K53A, C76A, C127A) (human) (UniProt Q14116)
# [14] = target: IL-18 polypeptide C157 (V11I, C38A, K53A, C76A, C127A, D132A) (human) (UniProt Q14116)
# [15] = target: IL-18 polypeptide C152 (V11I, S36A, C38A, K53A, C76A, C127A) (human) (UniProt Q14116)
# [16] = target: IL-18 polypeptide of SEQ ID NO: 51 (T63A) (human) (UniProt Q14116)
# [17] = target: IL-18 polypeptide C144 (V11I, C38A, K53A, T63A, C76A, C127A) (human) (UniProt Q14116)
# [18] = target: IL-18 polypeptide of SEQ ID NO: 46 (E06K, K53A, S55A, M51G) (human) (UniProt Q14116)
# [19] = target: IL-18 polypeptide of SEQ ID NO: 40 (E06K, S55A) (human) (UniProt Q14116)
# [20] = target: IL-18 polypeptide of SEQ ID NO: 39 (E06K, K53A) (human) (UniProt Q14116)
# [21] = target: IL-18 polypeptide of SEQ ID NO: 9 (E6K, C38A, K53A, C68A, D98C) (human) (UniProt Q14116)
# [22] = target: IL-18 polypeptide C168 (V11I, C38A, C76A, S105K, C127A) (human) (UniProt Q14116)
# [23] = target: IL-18 polypeptide C153 (V11I, D37A, C38A, K53A, C76A, C127A) (human) (UniProt Q14116)
# [24] = target: IL-18 polypeptide C167 (V11I, C38A, C76A, S105I, C127A) (human) (UniProt Q14116)
# [25] = target: IL-18 polypeptide of SEQ ID NO: 52 (E06K, T63A) (human) (UniProt Q14116)
# [26] = target: IL-18 polypeptide C150 (V11I, T34A, C38A, K53A, C76A, C127A) (human) (UniProt Q14116)
# [27] = target: IL-18 polypeptide of SEQ ID NO: 34 (E06K, K53A, S55A) (human) (UniProt Q14116)
# [28] = target: IL-18 polypeptide C158 (V11I, C38A, K53A, C76A, G108A, C127A) (human) (UniProt Q14116)
# Chain of IL-18 polypeptide C158 (V11I, C38A, K53A, C76A, G108A, C127A) (human) (Q14116 37-193 V47I/C74A/K89A/C112A/G144A/C163A): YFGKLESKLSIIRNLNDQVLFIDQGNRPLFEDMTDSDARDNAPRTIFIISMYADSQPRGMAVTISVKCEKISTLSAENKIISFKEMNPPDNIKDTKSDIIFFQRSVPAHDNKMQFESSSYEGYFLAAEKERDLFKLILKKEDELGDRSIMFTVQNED
# Chain of IL-18 polypeptide C165 (V11I, C38A, S55R, C76A, C127A) (human) (Q14116 37-193 V47I/C74A/S91R/C112A/C163A): as the sequence (Q14116 37-193 V47I/C74A/K89A/C112A/G144A/C163A) above, with A53K, S55R, A108G counted along it
# Chain of IL-18 polypeptide of SEQ ID NO: 4 (E6K, C38A, K53A, C68A, M86C) (human) (Q14116 other isoform, or with tags, fused parts or gaps C38A K53A C68A M86C C38A K53A C68A M86C): as the sequence (Q14116 37-193 V47I/C74A/K89A/C112A/G144A/C163A) above, with E6K, I11V, C68A, A76C, M86C, A108G, A127C counted along it
# Chain of IL-18 polypeptide of SEQ ID NO: 39 (E06K, K53A) (human) (Q14116 37-193 E42K/K89A): as the sequence (Q14116 37-193 V47I/C74A/K89A/C112A/G144A/C163A) above, with E6K, I11V, A38C, A76C, A108G, A127C counted along it
# Chain of IL-18 polypeptide of SEQ ID NO: 6 (E6K, V11I, C38A, K53A, T63A, C68A, C76A, D98C, C127A) (human) (Q14116 other isoform, or with tags, fused parts or gaps with the stated changes): as the sequence (Q14116 37-193 V47I/C74A/K89A/C112A/G144A/C163A) above, with E6K, T63A, C68A, D98C, A108G counted along it
# Chain of IL-18 polypeptide of SEQ ID NO: 62 (E6K, C38A, K53A, C127A) (human) (Q14116 other isoform, or with tags, fused parts or gaps C38A K53A C127A C38A K53A C127A): as the sequence (Q14116 37-193 V47I/C74A/K89A/C112A/G144A/C163A) above, with E6K, I11V, A76C, A108G counted along it
# Chain of IL-18 polypeptide of SEQ ID NO: 30 (E6K, V11I, C38A, K53A, T63A, C76A, C127A) (human) (Q14116 other isoform, or with tags, fused parts or gaps with the stated changes): as the sequence (Q14116 37-193 V47I/C74A/K89A/C112A/G144A/C163A) above, with E6K, T63A, A108G counted along it
# Chain of IL-18 polypeptide of SEQ ID NO: 40 (E06K, S55A) (human) (Q14116 37-193 E42K/S91A): as the sequence (Q14116 37-193 V47I/C74A/K89A/C112A/G144A/C163A) above, with E6K, I11V, A38C, A53K, S55A, A76C, A108G, A127C counted along it
# Chain of IL-18 polypeptide C151 (V11I, D35A, C38A, K53A, C76A, C127A) (human) (Q14116 37-193 V47I/D71A/C74A/K89A/C112A/C163A): as the sequence (Q14116 37-193 V47I/C74A/K89A/C112A/G144A/C163A) above, with D35A, A108G counted along it
# Chain of IL-18 polypeptide of SEQ ID NO: 52 (E06K, T63A) (human) (Q14116 37-193 E42K/T99A): as the sequence (Q14116 37-193 V47I/C74A/K89A/C112A/G144A/C163A) above, with E6K, I11V, A38C, A53K, T63A, A76C, A108G, A127C counted along it
# Chain of IL-18 polypeptide C159 (V11I, C38A, K53A, C76A, H109A, C127A) (human) (Q14116 37-193 V47I/C74A/K89A/C112A/H145A/C163A): as the sequence (Q14116 37-193 V47I/C74A/K89A/C112A/G144A/C163A) above, with A108G, H109A counted along it
# Chain of IL-18 polypeptide C166 (V11I, C38A, S55T, C76A, C127A) (human) (Q14116 37-193 V47I/C74A/S91T/C112A/C163A): as the sequence (Q14116 37-193 V47I/C74A/K89A/C112A/G144A/C163A) above, with A53K, S55T, A108G counted along it
# Chain of IL-18 polypeptide C143 (V11I, C38A, K53A, C76A, C127A) (human) (Q14116 37-193 V47I/C74A/K89A/C112A/C163A): as the sequence (Q14116 37-193 V47I/C74A/K89A/C112A/G144A/C163A) above, with A108G counted along it
# Chain of IL-18 polypeptide C157 (V11I, C38A, K53A, C76A, C127A, D132A) (human) (Q14116 37-193 V47I/C74A/K89A/C112A/C163A/D168A): as the sequence (Q14116 37-193 V47I/C74A/K89A/C112A/G144A/C163A) above, with A108G, D132A counted along it
# Chain of IL-18 polypeptide C152 (V11I, S36A, C38A, K53A, C76A, C127A) (human) (Q14116 37-193 V47I/S72A/C74A/K89A/C112A/C163A): as the sequence (Q14116 37-193 V47I/C74A/K89A/C112A/G144A/C163A) above, with S36A, A108G counted along it
# Chain of IL-18 polypeptide C150 (V11I, T34A, C38A, K53A, C76A, C127A) (human) (Q14116 37-193 V47I/T70A/C74A/K89A/C112A/C163A): as the sequence (Q14116 37-193 V47I/C74A/K89A/C112A/G144A/C163A) above, with T34A, A108G counted along it
# Chain of IL-18 polypeptide of SEQ ID NO: 36 (K53A) (human) (Q14116 37-193 K89A): as the sequence (Q14116 37-193 V47I/C74A/K89A/C112A/G144A/C163A) above, with I11V, A38C, A76C, A108G, A127C counted along it
# Chain of IL-18 polypeptide of SEQ ID NO: 9 (E6K, C38A, K53A, C68A, D98C) (human) (Q14116 other isoform, or with tags, fused parts or gaps C38A K53A C68A D98C C38A K53A C68A D98C): as the sequence (Q14116 37-193 V47I/C74A/K89A/C112A/G144A/C163A) above, with E6K, I11V, C68A, A76C, D98C, A108G, A127C counted along it
# Chain of IL-18 polypeptide of SEQ ID NO: 51 (T63A) (human) (Q14116 37-193 T99A): as the sequence (Q14116 37-193 V47I/C74A/K89A/C112A/G144A/C163A) above, with I11V, A38C, A53K, T63A, A76C, A108G, A127C counted along it
# Chain of IL-18 polypeptide of SEQ ID NO: 34 (E06K, K53A, S55A) (human) (Q14116 37-193 E42K/K89A/S91A): as the sequence (Q14116 37-193 V47I/C74A/K89A/C112A/G144A/C163A) above, with E6K, I11V, A38C, S55A, A76C, A108G, A127C counted along it
# Chain of IL-18 polypeptide of SEQ ID NO: 54 (E06K, K53A, C38S, C68S, C76S, C127S, K70C) (human) (Q14116 37-193 E42K/C74S/K89A/C104S/K106C/C112S/C163S): as the sequence (Q14116 37-193 V47I/C74A/K89A/C112A/G144A/C163A) above, with E6K, I11V, A38S, C68S, K70C, A76S, A108G, A127S counted along it
# Chain of IL-18 polypeptide C144 (V11I, C38A, K53A, T63A, C76A, C127A) (human) (Q14116 37-193 V47I/C74A/K89A/T99A/C112A/C163A): as the sequence (Q14116 37-193 V47I/C74A/K89A/C112A/G144A/C163A) above, with T63A, A108G counted along it
# Chain of IL-18 polypeptide C154 (V11I, E31A, D37A, C38A, K53A, C76A, C127A) (human) (Q14116 37-193 V47I/E67A/D73A/C74A/K89A/C112A/C163A): as the sequence (Q14116 37-193 V47I/C74A/K89A/C112A/G144A/C163A) above, with E31A, D37A, A108G counted along it
# Chain of IL-18 polypeptide C167 (V11I, C38A, C76A, S105I, C127A) (human) (Q14116 37-193 V47I/C74A/C112A/S141I/C163A): as the sequence (Q14116 37-193 V47I/C74A/K89A/C112A/G144A/C163A) above, with A53K, S105I, A108G counted along it
# Chain of IL-18 polypeptide of SEQ ID NO: 46 (E06K, K53A, S55A, M51G) (human) (Q14116 37-193 E42K/M87G/K89A/S91A): as the sequence (Q14116 37-193 V47I/C74A/K89A/C112A/G144A/C163A) above, with E6K, I11V, A38C, M51G, S55A, A76C, A108G, A127C counted along it
# Chain of IL-18 polypeptide of SEQ ID NO: 38 (E06K) (human) (Q14116 37-193 E42K): as the sequence (Q14116 37-193 V47I/C74A/K89A/C112A/G144A/C163A) above, with E6K, I11V, A38C, A53K, A76C, A108G, A127C counted along it
# Chain of IL-18 polypeptide C153 (V11I, D37A, C38A, K53A, C76A, C127A) (human) (Q14116 37-193 V47I/D73A/C74A/K89A/C112A/C163A): as the sequence (Q14116 37-193 V47I/C74A/K89A/C112A/G144A/C163A) above, with D37A, A108G counted along it
# Chain of IL-18 polypeptide C168 (V11I, C38A, C76A, S105K, C127A) (human) (Q14116 37-193 V47I/C74A/C112A/S141K/C163A): as the sequence (Q14116 37-193 V47I/C74A/K89A/C112A/G144A/C163A) above, with A53K, S105K, A108G counted along it
substance,measurement,setting,value
Fc-fused human IL-18 binding protein isoform a (IL-18BPa) (from UniProt O95998 31-194) (Fc fusion),IC50 of IL-18BPa inhibition of IFNγ induction in NK-92 cells,[1],7.79 nM
same,IC50 of IL-18BPa inhibition of IFNγ induction in NK-92 cells,[2],27.3 nM
same,IC50 of IL-18BPa inhibition of IFNγ induction in NK-92 cells,[3],3.23 nM
same,IC50 of IL-18BPa inhibition of IFNγ induction in NK-92 cells,[4],7.52 nM
same,IC50 of IL-18BPa inhibition of IFNγ induction in NK-92 cells,[5],396 nM
same,IC50 of IL-18BPa inhibition of IFNγ induction in NK-92 cells,[6],780 nM
same,IC50 of IL-18BPa inhibition of IFNγ induction in NK-92 cells,[7],5.85 nM
same,IC50 of IL-18BPa inhibition of IFNγ induction in NK-92 cells,[8],0.44 nM
same,IC50 of IL-18BPa inhibition of IFNγ induction in NK-92 cells,[9],0.809 nM
same,IC50 of IL-18BPa inhibition of IFNγ induction in NK-92 cells,[10],23.5 nM
same,IC50 of IL-18BPa inhibition of IFNγ induction in NK-92 cells,[11],284 nM
same,IC50 of IL-18BPa inhibition of IFNγ induction in NK-92 cells,[12],3.18 nM
same,IC50 of IL-18BPa inhibition of IFNγ induction in NK-92 cells,[13],7.85 nM
same,IC50 of IL-18BPa inhibition of IFNγ induction in NK-92 cells,[14],3.98 nM
same,IC50 of IL-18BPa inhibition of IFNγ induction in NK-92 cells,[15],2.22 nM
same,IC50 of IL-18BPa inhibition of IFNγ induction in NK-92 cells,[16],0.239 nM
same,IC50 of IL-18BPa inhibition of IFNγ induction in NK-92 cells,[17],10.2 nM
same,IC50 of IL-18BPa inhibition of IFNγ induction in NK-92 cells,[18],0.189 nM
same,IC50 of IL-18BPa inhibition of IFNγ induction in NK-92 cells,[19],15 nM
same,IC50 of IL-18BPa inhibition of IFNγ induction in NK-92 cells,[20],> 703 nM
same,IC50 of IL-18BPa inhibition of IFNγ induction in NK-92 cells,[21],961 nM
same,IC50 of IL-18BPa inhibition of IFNγ induction in NK-92 cells,[22],5.85 nM
same,IC50 of IL-18BPa inhibition of IFNγ induction in NK-92 cells,[23],3.71 nM
same,IC50 of IL-18BPa inhibition of IFNγ induction in NK-92 cells,[24],0.176 nM
same,IC50 of IL-18BPa inhibition of IFNγ induction in NK-92 cells,[25],47.1 nM
same,IC50 of IL-18BPa inhibition of IFNγ induction in NK-92 cells,[26],3.62 nM
same,IC50 of IL-18BPa inhibition of IFNγ induction in NK-92 cells,[27],229 nM
same,IC50 of IL-18BPa inhibition of IFNγ induction in NK-92 cells,[28],1.81 nM
